The text below walks through data of paper PMC7876108, “Cryo-EM structures of engineered active bc1-cbb3 type CIII2CIV super-complexes and electronic communication between the complexes” (Nature Communications, 2021).

T1: cytochrome c1, subunit of bc1-type CIII2 (Rhodobacter capsulatus, UniProt D5ANZ4 22-279)
T1 construct: cytochrome c1 (petC), Rhodobacter capsulatus; Stood within the CIII2 complex (FeS protein, cyt b, cyt c1; a dimer) in the cross-linking and in the cryo-EM maps of native CIII2; also called cyt c1; PetC; source: native CIII2 particles in the bipartite SC + cy sample
T1 sequence (looked up): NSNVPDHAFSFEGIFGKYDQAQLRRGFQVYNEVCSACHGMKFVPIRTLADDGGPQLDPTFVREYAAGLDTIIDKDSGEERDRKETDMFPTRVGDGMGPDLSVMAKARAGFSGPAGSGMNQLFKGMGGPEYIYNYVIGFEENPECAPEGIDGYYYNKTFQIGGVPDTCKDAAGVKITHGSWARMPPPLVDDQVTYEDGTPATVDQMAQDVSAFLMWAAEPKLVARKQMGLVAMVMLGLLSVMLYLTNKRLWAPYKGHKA

T2: CcoP, subunit of cbb3-type CIV (Rhodobacter capsulatus, UniProt D5ARP7 1-297)
T2 construct: CcoP subunit of the cbb3-type CIV, Rhodobacter capsulatus; Stood within purified CIV in the cross-linking
T2 sequence (looked up): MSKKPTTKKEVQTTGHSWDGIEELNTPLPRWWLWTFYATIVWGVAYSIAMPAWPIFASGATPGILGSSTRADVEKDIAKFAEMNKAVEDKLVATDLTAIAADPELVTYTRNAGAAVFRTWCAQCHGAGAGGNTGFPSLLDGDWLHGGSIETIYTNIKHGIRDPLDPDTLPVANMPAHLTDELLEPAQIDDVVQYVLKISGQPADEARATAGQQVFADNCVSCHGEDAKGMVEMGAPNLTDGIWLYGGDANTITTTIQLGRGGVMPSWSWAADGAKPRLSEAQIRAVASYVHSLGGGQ

T3: cytochrome cy, full length (membrane-anchored) (Rhodobacter capsulatus, UniProt Q05389 1-199)
T3 construct: cytochrome cy (cycY), Rhodobacter capsulatus: 30-residue TMH, 69-residue linker, 100-residue cyt c domain; Only its TMH is resolved in map SC-2A; also called cyt cy; intact cyt cy; source: purified
T3 sequence (looked up): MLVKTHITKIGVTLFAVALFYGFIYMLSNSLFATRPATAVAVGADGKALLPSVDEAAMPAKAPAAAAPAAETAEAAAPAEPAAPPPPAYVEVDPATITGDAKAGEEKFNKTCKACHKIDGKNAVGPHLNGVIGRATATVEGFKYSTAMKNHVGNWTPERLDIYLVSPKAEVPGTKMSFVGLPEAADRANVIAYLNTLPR

B1: cytochrome c2 (natural protein, Rhodobacter capsulatus, UniProt P00094 22-137, looked up)
chain: GDAAKGEKEFNKCKTCHSIIAPDGTEIVKGAKTGPNLYGVVGRTAGTYPEFKYKDSIVALGASGFAWTEEDIATYVKDPGAFLKEKLDDKKAKTGMAFKLAKGGEDVAAYLASVVK
notes: soluble cytochrome c2, Rhodobacter capsulatus; also called cyt c2; source: purified R. capsulatus cyt c2
B2: Rieske FeS protein, subunit of CIII2 (natural protein, Rhodobacter capsulatus)
chain: MSHAEDNAGTRRDFLYHATAATGVVVTGAAVWPLINQMNASADVKAMASIFVDVSAVEVGTQLTVKWRGKPVFIRRRDEKDIELARSVPLGALRDTSAENANKPGAEATDENRTLPAFDGTNTGEWLVMLGVCTHLGCVPMGDKSGDFGGWFCPCHGSHYDSAGRIRKGPAPRNLDIPVAAFVDETTIKLG
notes: Rieske FeS protein (petA), Rhodobacter capsulatus; TMH residues 11-49, external domain (ED) residues 50-191 in the model; also called PetA; FeS-ED (its external domain); source: R. capsulatus pYO76/YO12, subunit of the purified bipartite SC and of the native CIII2 particles in that sample
B3: cyt c1-CcoP fusion subunit of the bipartite SC (His8) (other, Rhodobacter capsulatus, UniProt D5ANZ4 22-279, looked up)
chain: NSNVPDHAFSFEGIFGKYDQAQLRRGFQVYNEVCSACHGMKFVPIRTLADDGGPQLDPTFVREYAAGLDTIIDKDSGEERDRKETDMFPTRVGDGMGPDLSVMAKARAGFSGPAGSGMNQLFKGMGGPEYIYNYVIGFEENPECAPEGIDGYYYNKTFQIGGVPDTCKDAAGVKITHGSWARMPPPLVDDQVTYEDGTPATVDQMAQDVSAFLMWAAEPKLVARKQMGLVAMVMLGLLSVMLYLTNKRLWAPYKGHKASKKPTTKKEVQTTGHSWDGIEELNTPLPRWWLWTFYATIVWGVAYSIAMPAWPIFASGATPGILGSSTRADVEKDIAKFAEMNKAVEDKLVATDLTAIAADPELVTYTRNAGAAVFRTWCAQCHGAGAGGNTGFPSLLDGDWLHGGSIETIYTNIKHGIRDPLDPDTLPVANMPAHLTDELLEPAQIDDVVQYVLKISGQPADEARATAGQQVFADNCVSCHGEDAKGMVEMGAPNLTDGIWLYGGDANTITTTIQLGRGGVMPSWSWAADGAKPRLSEAQIRAVASYVHSLGGGQ
notes: cytochrome c1 (petC), Rhodobacter capsulatus; stop codon eliminated, no linker to CcoP; CcoP subunit of the cbb3-type CIV, Rhodobacter capsulatus; start codon eliminated; About 65 kDa; Stood within the bipartite SC; also called petC::ccoP-His8; source: R. capsulatus pYO76/YO12, subunit of the purified bipartite SC; not shown: His8, C-terminal, kept
B4: cytochrome b, subunit of CIII2 (natural protein, Rhodobacter capsulatus)
chain: MSGIPHDHYEPKTGIEKWLHDRLPIVGLVYDTIMIPTPKNLNWWWIWGIVLAFTLVLQIVTGIVLAMHYTPHVDLAFASVEHIMRDVNGGWAMRYIHANGASLFFLAVYIHIFRGLYYGSYKAPREITWIVGMVIYLLMMGTAFMGYVLPWGQMSFWGATVITGLFGAIPGIGPSIQAWLLGGPAVDNATLNRFFSLHYLLPFVIAALVAIHIWAFHTTGNNNPTGVEVRRTSKADAEKDTLPFWPYFVIKDLFALALVLLGFFAVVAYMPNYLGHPDNYVQANPLSTPAHIVPEWYFLPFYAILRAFAADVWVVILVDGLTFGIVDAKFFGVIAMFGAIAVMALAPWLDTSKVRSGAYRPKFRMWFWFLVLDFVVLTWVGAMPTEYPYDWISLIASTYWFAYFLVILPLLGATEKPEPIPASIEEDFNSHYGNPAE
notes: cytochrome b (petB), Rhodobacter capsulatus; also called cyt b; PetB

In data set [1] the target is T1, cytochrome c1, subunit of bc1-type CIII2. The data set can be described thus: cross-linking; XL-MS: 300 ug purified bc1-type CIII2 with 2-fold molar excess of cyt c2, 20 mM DMTMM, 1 h, room temperature, low salt (20 mM Na-phosphate pH 7.4, 1 mM NaCl, 0.01% DDM). Particulars: both partners purified.
Data set [2] addresses T2, CcoP, subunit of cbb3-type CIV. The data set can be described thus: cross-linking; XL-MS: 300 ug purified cbb3-type CIV with 2-fold molar excess of cyt c2, 20 mM DMTMM, 1 h, room temperature, low salt (20 mM Na-phosphate pH 7.4, 1 mM NaCl, 0.01% DDM). The settings on record: both partners purified.
In data set [3] the target is T3, cytochrome cy, full length …. Kind of data set: cross-linking; XL-MS: cyt cy with CIII2CIV, DMTMM. The settings on record: both partners purified.
The target in data set [4] is B4. Kind of data set: cryo-EM structure; native CIII2 particles in the bipartite SC + cy samples; maps CIII2 (3.3 A), CIII2 c-c (3.8 A), b-c (4.2 A), b-b (3.5 A). The settings on record: both partners purified.
Data set [5] addresses T1, cytochrome c1, subunit of bc1-type CIII2. Described as above. Particulars: both partners purified.
The target in data set [6] is B4. The data set can be described thus: cryo-EM structure; purified bipartite SC mixed with 5-fold molar excess of purified cyt cy; map SC-2A, 5.2 A; models fitted as rigid bodies. Particulars: both partners purified.
Data set [7] deals with the molecule itself. The description is as above.

Regarding B1, the binding result in data set [1] and in data set [2] was “binds” in each case.
Turning to B2, the binding result in data set [3], in data set [4] and in data set [5] was “binds” throughout.
On to B3, for which the binding result in data set [3] and in data set [6] was “binds” throughout.
With B4, the binding result in data set [7] was “binds”.
